For data set [1], the target named is EcGspD fragment 1-237 (peri-GspD), N0-N1-N2 subdomains of the secretin from enterotoxigenic E. coli (enterotoxigenic E. coli). As to the kind of experiment: SPR. On the technique in general: Surface plasmon resonance follows binding to a sensor surface in real time, without labels.
The data set “cryo-EM structure” deals with the molecule itself. Put plainly: cryo-EM structure.

Molecule “B-pentamer of heat-labile enterotoxin (LTB5) (from UniProt P32890 22-124) (complex)” yielded a Kd in data set [1] of 15.5 µM.

B1: V. cholerae GspD secretin (VcGspD), full-length recombinant channel (natural protein)
chain: NEFSASFKGTDIQEFINIVGRNLEKTIIVDPSVRGKVDVRSFDTLNEEQYYSFFLSVLEVYGFAVVEMDNGVLKVIKSKDAKTSAIPVLSGEERANGDEVITQVVAVKNVSVRELSPLLRQLIDNAGAGNVVHYDPANIILITGRAAVVNRLAEIIRRVDQAGDKEIEVVELNNASAAEMVRIVEALNKTTDAQNTPEFLKPKFVADERTNSILISGDPKVRERLKRLIKQLDVEMAAKGNNRVVYLKYAKAEDLVEVLKGVSENLQAEKGTGQPTTSKRNEVMIAAHADTNSLVLTAPQDIMNAMLEVIGQLDIRRAQVLIEALIVEMAEGDGINLGVQWGSLESGSVIQYGNTGASIGNVMIGLEEAKDTTQTKAVYDTNNNFLRNETTTTKGDYTKLASALSSIQGAAVSIAMGDWTALINAVSNDSSSNILSSPSITVMDNGEASFIVGEEVPVITGSTAGSNNDNPFQTVDRKEVGIKLKVVPQINEGNSVQLNIEQEVSNVLGANGAVDVRFAKRQLNTSVMVQDGQMLVLGGLIDERALESESKVPLLGDIPLLGQLFRSTSSQVEKKNLMVFIKPTIIRDGVTADGITQRKYNYIRAEQLFRAEKGLRLLDDASVPVLPKFGDDRRHSPEIQAFIEQMEAKQ
In the case of B1, the “stoichiometry N” value in the data set “cryo-EM structure” is 12.

For orientation: Kd means the equilibrium constant for the complex coming apart. As usually defined, the stoichiometry N is a count of units in the complex or per binding partner.

(Values after paper PMC2950906 (Nature structural & molecular biology, 2010).)
